In patent US20040235726A1, “Glucagon-like peptides (glp-1) and treatment of respiratory distress” (priority 2001, published 2004):
“And” between values parts separate entries of the source, which are not always exact repeats. Equal entries are not always repeated. Where no end group is shown, it is not given here.

target: T1, human GLP-1 receptor (Homo sapiens, UniProt P43220); experiment: In vitro potency assay (GLP-1 receptor signaling, CRE-BLAM reporter); type: cell-based; conditions: HEK-293 Aurora CRE-BLAM cells expressing the human GLP-1 receptor; EC50-based potency relative to Val^8-GLP-1 (7-37)OH (=1.0); several values in a cell are repeat determinations
T1 construct: expressed in transfected cells; host or cells: HEK-293 Aurora CRE-BLAM cells
T1 sequence (P43220 24-463): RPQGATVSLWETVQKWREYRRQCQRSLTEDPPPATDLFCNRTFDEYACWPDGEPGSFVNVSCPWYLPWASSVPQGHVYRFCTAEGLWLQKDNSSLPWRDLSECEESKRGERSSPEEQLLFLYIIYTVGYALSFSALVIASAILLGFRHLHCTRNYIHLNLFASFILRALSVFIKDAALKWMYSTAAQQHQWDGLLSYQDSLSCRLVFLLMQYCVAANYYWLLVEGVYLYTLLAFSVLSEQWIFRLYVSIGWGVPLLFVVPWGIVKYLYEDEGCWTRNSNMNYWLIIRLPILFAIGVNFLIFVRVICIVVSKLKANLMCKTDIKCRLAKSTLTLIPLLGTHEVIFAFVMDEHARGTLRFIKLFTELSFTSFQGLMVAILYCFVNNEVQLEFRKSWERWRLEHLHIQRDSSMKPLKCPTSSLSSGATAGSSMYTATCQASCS
Description: The extent of the induction of cAMP levels can then be measured using a cAMP response element which drives the expression of a reporter gene such as luciferase or beta lactamase.
These HEK-293 cells have stably integrated a DNA vector having a cAMP response element (CRE) driving expression of the β-lactamase (BLAM) gene. […] The assay is further described in Zlokarnik, et al. (1998) Science 279:84-88 (See also Example 3).
The day after seeding, the medium is replaced with plasma free medium.

Row | Molecule | GLP-1 receptor activation relative to Val^8-GLP-1 (7-37) OH
1 | Val^8-Glu^22-Ile^33-GLP-1 (7-37) OH (HVEGTFTSDVSSYLEEQAAKEFIAWLIKGRG) | 4.7 and 3.8 and 3.4
2 | Val^8-Glu^22-Val^25-GLP-1 (7-37) OH (HVEGTFTSDVSSYLEEQAVKEFIAWLVKGRG) | 4.7 and 2.9
3 | Val^8-Glu^22-Val^25-Ile^33-GLP-1 (7-37) OH (HVEGTFTSDVSSYLEEQAVKEFIAWLIKGRG) | 4.9 and 5.8 and 6.7
4 | Val^8-Glu^30-GLP-1 (7-37) OH (HVEGTFTSDVSSYLEGQAAKEFIEWLVKGRG) | 0.6 and 0.7
5 | Val^8-His^37-GLP-1 (7-37) OH (HVEGTFTSDVSSYLEGQAAKEFIAWLVKGRH) | 0.7 and 1.2
6 | Val^8-Lys^33-Asn^34-GLP-1 (7-37) OH | 0.2
7 | Val^8-Trp^16-Glu^22-GLP-1 (7-37) OH (HVEGTFTSDWSSYLEEQAAKEFIAWLVKGRG) | 4.9 and 4.6
8 | Val^8-Tyr^12-GLP-1 (7-37) OH (HVEGTYTSDVSSYLEGQAAKEFIAWLVKGRG) | 1.7 and 1.8
9 | Val^8-Tyr^16-GLP-1 (7-37) OH (HVEGTFTSDYSSYLEGQAAKEFIAWLVKGRG) | 2.6 and 2.5
10 | Val^8-Tyr^16-Glu^22-GLP-1 (7-37) OH (HVEGTFTSDYSSYLEEQAAKEFIAWLVKGRG) | 3.6 and 3.8
11 | Val^8-Tyr^18-Glu^22-GLP-1 (7-37) OH (HVEGTFTSDVSYYLEEQAAKEFIAWLVKGRG) | 5.1 and 5.9

same assay, conditions: in vitro potency relative to Val^8-GLP-1 (7-37)OH

Row | Molecule | potency higher than Val^8-GLP-1 (7-37)OH
12 | Exendin-4 [reference compound] | approximately 5 fold
13 | Val^8-Glu^22-GLP-1 (7-37) OH (HVEGTFTSDVSSYLEEQAAKEFIAWLVKGRG) | approximately 3 fold

target: human GLP-1 receptor (human, UniProt P43220 24-463); experiment: cell-based or functional assay; conditions: not given

Row | Molecule | GLP-1 receptor activation relative to Val^8-GLP-1 (7-37) OH
14 | HVEGTFTSDVSSYLEGQAAKEFIAWLVKGEG-OH [Val^8-Glu^36-GLP-1 (7-37) OH] | 0.2 relative to Val^8-GLP-1 (7-37) OH
15 | HVEGTFTSDVSSYLEGQAAKEFIAWLVGKRG-OH [Val^8-Gly^34-Lys^35-GLP-1 (7-37) OH] | 0.7 relative to Val^8-GLP-1 (7-37) OH
16 | HVEGTFTSDVSSYLEEKAAKEFIAWLVKGRG-OH [Val^8-Glu^22-Lys^23-GLP-1 (7-37) OH] | 3.1 relative to Val^8-GLP-1 (7-37) OH
17 | HVEGTFTSDVSSYLEGQAAKEFIAWLKNGRG-OH [Val^8-Lys^33-Asn^34-GLP-1 (7-37) OH] | 0.2 relative to Val^8-GLP-1 (7-37) OH
18 | HVEGTFTSDVSSYLEKQAAKEFIEWLVKGRG-OH [Val^8-Lys^22-Glu^30-GLP-1 (7-37) OH] | 0.8 relative to Val^8-GLP-1 (7-37) OH
19 | HVEGTFTSDVSSYLEGQAAKEFIAWLVKGGP-NH2 [Val^8-Gly^36-Pro^37-GLP-1 (7-37) NH2] | 1.2 relative to Val^8-GLP-1 (7-37) OH
20 | HVEGTFTSDVSSYLEKEAAKEFIAWLVKGRG-OH [Val^8-Lys^22-Glu^23-GLP-1 (7-37) OH] | 0.8 relative to Val^8-GLP-1 (7-37) OH
21 | HVEGTFTSDVSSYLEGQAAKEFIAWLVKGHG-OH [Val^8-His^36-GLP-1 (7-37) OH] | 0.5 relative to Val^8-GLP-1 (7-37) OH
22 | HVEGTFTSDVSSYLEGQAAKEFIAWLKVGRG-OH [Val^8-Lys^33-Val^34-GLP-1 (7-37) OH] | 0.2 relative to Val^8-GLP-1 (7-37) OH
23 | HVEGTFTSDLSSYLEGQAAEEFIAWLVKGRG-OH [Val^8-Leu^16-Glu^26-GLP-1 (7-37) OH] | 0.5 relative to Val^8-GLP-1 (7-37) OH
24 | HVEGTFTSDVSSYLEGQAAKEFIAWLVKERG-OH [Val^8-Glu^35-GLP-1 (7-37) OH] | 0.3 relative to Val^8-GLP-1 (7-37) OH
